Laboratory results published in US20150191543A1 (University of California, published 2015).

Columns and labels:
[1] = target: T1, soluble CD8αβ heterodimer fusion protein (mouse, UniProt P01731 28-151; P10300 22-138); experiment: SPR, Biacore 3000; minibody captured by goat anti-mouse IgG Fc, sCD8αβ as analyte at 0-100 nM
Experimental: FIG. 15A-to FIG. 15C depict the kinetic analysis of minibody binding to sCD8αβ antigen using SPR Biacore 3000. […] Soluble monovalent antigen was then flowed over the chip at 100 (green), 50 (magenta), 25 (red), 12.5 (dark blue), 6.25 (light blue), and 0 (black) nM.
(§1) Surface Plasmon Resonance (SPR) analysis was performed on a Biacore 3000 (Precision Antibody, Inc.). Briefly, Mbs were captured using goat anti-mouse IgG Fc and sCD8αβ antigen was flowed over the chip at 100, 50, 25, 12.5, 6.25 and 0 nM. The equilibrium constant (KD) was calculated from the observed on (kₐ) and off (kd) rates.

[2] = target: T1, soluble CD8αβ heterodimer fusion protein; experiment: SPR, Biacore 3000; minibody captured by goat anti-mouse IgG Fc, soluble monomeric sCD8αβ flowed at 0-100 nM
Experimental: as §1
SPR kinetic analysis was performed using the Biacore 3000 with immobilized minibody and soluble monomeric sCD8αβ.

[3] = target: T2, mouse CD8α, Lyt2.2 allele (mouse, UniProt P01731 28-247); experiment: statement in Example 5; supported there only by in vivo immunoPET and biodistribution in C57Bl/6 mice
T2 construct: On the cells it is paired with CD8β (BW58 is Lyt2.2+, Lyt3+); also called CD8a Lyt2.2; CD8-Lyt2.2

[4] = target: T3, mouse CD8α, Lyt2.1 allele (mouse, UniProt P01731 28-247); experiment: statement in Example 5; supported there only by in vivo immunoPET and biodistribution in C3H mice
T3 construct: Position 78 is counted on mature CD8a, not on the precursor; On the cells it is paired with CD8β (TK-1 is Lyt2.1+, Lyt3+); also called CD8a Lyt2.1; CD8-Lyt2.1
T3 sequence (P01731 28-247 M105V limits assumed): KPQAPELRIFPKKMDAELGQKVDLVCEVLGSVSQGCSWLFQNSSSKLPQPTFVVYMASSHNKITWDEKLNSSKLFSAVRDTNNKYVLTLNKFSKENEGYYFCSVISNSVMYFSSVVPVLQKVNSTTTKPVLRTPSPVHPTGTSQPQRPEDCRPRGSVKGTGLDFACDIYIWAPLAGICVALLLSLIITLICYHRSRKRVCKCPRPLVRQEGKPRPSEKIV

T1 sequence (P10300 other isoform, or with tags, fused parts or gaps): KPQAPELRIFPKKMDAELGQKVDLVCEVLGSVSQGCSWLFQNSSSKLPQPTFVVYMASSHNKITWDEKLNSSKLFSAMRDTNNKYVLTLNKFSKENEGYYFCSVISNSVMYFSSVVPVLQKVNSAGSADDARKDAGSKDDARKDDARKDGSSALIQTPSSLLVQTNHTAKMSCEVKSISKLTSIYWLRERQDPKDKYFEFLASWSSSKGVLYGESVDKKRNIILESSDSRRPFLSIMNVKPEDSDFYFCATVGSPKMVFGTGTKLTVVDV
T2 sequence (P01731 28-247 limits assumed): as the sequence (P01731 28-247 M105V limits assumed) above, with V78M counted along it

Ka [1] [M⁻¹] | koff [1] [s⁻¹] | kon [1] [M⁻¹ s⁻¹] | Kd [2] [nM] | binding result [3] | binding result [4] | Binder
3e+07 | 0.0041 | 120000 | 34 | – | – | anti-mCD8 2.43 minibody (other, Minibody (scFv-hinge-CH3 homodimer, about 80 kDa; 19% higher multimers); Some assays used the NOTA/64Cu-labelled or FITC-labelled protein) scFv: EVQLVESGGGLVQPGRSLKLSCAASGFTFSNYYMAWVRQAPTKGLEWVAYINTGGGTTYYRDSVKGRFTISRDDAKSTLYLQMDSLRSEDTATYYCTTAIGYYFDYWGQGVMVTVSSGSTSGGGSGGGSGGGGSSDIQLTQSPASLSASLGETVSIECLASEDIYSYLAWYQQKPGKSPQVLIYAANRLQDGVPSRFSGSGSGTQYSLKISGMQPEDEGDYFCLQGSKFPYTFGAGTKLELKLEPRGPTIKPCPPCKCPAPNLLGGPGSVRAPQVYVLPPPEEEMTKKQVTLTCMVTDFMPEDIYVEWTNNGKTELNYKNTEPVLDSDGSYFMYSKLRVEKKNWVERNSYSCSVVHEGLHNYHTTKSFSRTPGKAAAAGHLPETGAGHHHHHHAAA
– | – | – | – | binds | no binding | anti-mCD8 2.43 Cys-diabody (other, Cys-diabody (scFv dimer, about 51 kDa)) scFv: EVQLVESGGGLVQPGRSLKLSCAASGFTFSNYYMAWVRQAPTKGLEWVAYINTGGGTTYYRDSVKGRFTISRDDAKSTLYLQMDSLRSEDTATYYCTTAIGYYFDYWGQGVMVTVSSGGGGSDIQLTQSPASLSASLGETVSIECLASEDIYSYLAWYQQKPGKSPQVLIYAANRLQDGVPSRFSGSGSGTQYSLKISGMQPEDEGDYFCLQGSKFPYTFGAGTKLELKAAAGCGGHHHHHH
3e+07 | 0.0076 | 230000 | 33 | – | – | anti-mCD8 YTS 169 minibody (other, Minibody (scFv-hinge-CH3 homodimer); also called YTS169 Mb) scFv: EVKLQESGGGLVQPGRSLKLSCAASGFNFNDYWMGWVRQAPGKGLEWIGEINKDSSTINYTPSLKDKFTISRDNAQNTLYLQMSKLGSEDTAIYYCARARGMMVLIIPHYFDYWGQGVMVTVSSGSTSGGGSGGGSGGGGSSDIVLTQSPAMAMSPGERITISCRASESVSTRMHWYQQKPGQQPKLLIYGASNLESGVPARFSGSGSGTDFTLTIDPVEANDTATYFCQQSWYDPWTFGGGTKLELKLEPRGPTIKPCPPCKCPAPNLLGGPGSVRAPQVYVLPPPEEEMTKKQVTLTCMVTDFMPEDIYVEWTNNGKTELNYKNTEPVLDSDGSYFMYSKLRVEKKNWVERNSYSCSVVHEGLHNYHTTKSFSRTPGKAAAAGHLPETGAGHHHHHHAAA
